How the values were obtained:
[1] = OTA detoxification activity assay (specific activity, fluorescence reduction ex/em 390/450 nm); assay type: biochemical; conditions: SEQ ID NO: 1 = 100%
How it was run: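 Recombinant enzyme preparation with 200 ng/mL OTA in 100 mM sodium phosphate, at pH 6.0 and pH 7.5, 37° C. Degradation followed as the fall in fluorescence at ex/em 390/450 nm. Specific activity taken from the initial linear slope; one unit degrades 1 μmol OTA per min at a starting OTA of […].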

[2] = Enzymatic activity comparison: activity remaining after 65° C. for 10 min at pH 6.0, relative to SEQ ID NO: 1; assay type: physicochemical
Description: To compare the temperature behavior and thermostability of selected enzymes to one another, enzyme was incubated at 65° C. for 10 min at pH 6.0. The enzymatic activity remaining after incubation was compared to the remaining activity of the enzyme of SEQ ID NO: 1 after incubation, the latter being set to 100%, see Table 16.

Molecule | Specific OTA detoxification activities in % compared to the enzyme of SEQ ID NO: 1, pH 6.0 [1] | Specific OTA detoxification activities in % compared to the enzyme of SEQ ID NO: 1, pH 7.5 [1] | Enzymatic activity remaining after incubation, compared to SEQ ID NO: 1 (set to 100%) [2]
195 (protein, exemplary polypeptide) MTTRTRILTAFLSLLAANACAADAAPAAPHTVVLRAARMFDGASGKLVDHPQLTIVGNKIVRIAQGDKAEVPAGAEVVDLGDATLLPGFIDAHVHLSGQSSDNWYGDFFDNMMRFPAEQALYGAYYARITLEAGFTSVRDVGSTDWVALGLRNAIDAGKVPGPRMLVSNYAVGSTGGHADQDPIPPHKLPLAGPLQGVCNGPEECRAAVRYQIKYGANVIKFMPSGGVLSLSDPVDAPELSQDEMNAVIGESHAWGRKVAAHAHGDKAAKMAVAAGVDSIEHGSFIEDDTLRAMKAKNVYLVPTISAIAHVEEKIGTFPPVIAEKGRAAAAHLRQTFRHAVQIGVPIALGTDAGVPAHGSNAREFRYMVENGLTPAQALLAGTANAARLLGTFDRVGTLEAGKLADVVAVPGNPIADITVTERPLFVMKDGVVVRRDAVR | 148% | 100% | 38%
202 (protein, exemplary polypeptide) MTTRTRILTAFLSLLAANACAADAAPAAPHTVVLRAARMFDGASGKLVDHPQLTIVGNKIVRIAQGDKAEVPAGAEVVDLGDATLLPGFIDAHVHLSGQSSDNWYGDFFDNMMRFPAEQALYGAYYARITLEAGFTSVRDVGSTDWVALGLRNAIDAGKVPGPRMLVSNYAVGSTGGHADQDPIPPHKLPLAGPLQGVCNGPEECRAAVRYQIKYGANVIKFMPSGGVLSLSDPVDAPELSQDEMNAVIGESHAWGRKVAAHAHGDKAAKMAVAAGVDSIEHGSFIEDDTLRAMKAKNVYLVPTISAIAHVEEKIGTFPPVLAEKGRAAAAHLRQTFRHAVQIGVPIALGTDAGVGAHGSNAREFRYMVENGLTPAQALLAGTANAARLLGTFDRVGTLEAGKLADVVAVPGNPIADITVTERPLFVMKDGVVVRRDAVR | 59% | 47% | 25%
197 (protein, exemplary polypeptide) MTTRTRILTAFLSLLAANACAADAAPAAPHTVVLRAARMFDGASGKLVDHPQLTIVGNKIVRIAQGDKAEVPAGAEVVDLGDATLLPGFIDAHVHLSGQSSDNWYGDFFDNMMRFPAEQALYGAYYARITLEAGFTSVRDVGSTDWVALGLRNAIDAGKVPGPRMLVSNYAVGSTGGHADQDPIPPHKLPLAGPLQGVCNGPEECRAAVRYQIKYGANVIKFMPSGGVLSLSDPVDAPELSQDEMNAVIGESHAWGRKVAAHAHGDKAAKMAVAAGVDSIEHGSFIEDDTLRAMKAKNVYLVPTISAIAHVEEKIGTFPPVIAEKGRAAAAHLRQTFRHAVQIGVPIALGTDAGVYAHGSNAREFRYMVENGLTPAQALLAGTANAARLLGTFDRVGTLEAGKLADVVAVPGNPIADITVTERPLFVMKDGVVVRRDAVR | 59% | 29% | 29%
201 (protein, exemplary polypeptide) MTTRTRILTAFLSLLAANACAADAAPAAPHTVVLRAARMFDGASGKLVDHPQLTIVGNKIVRIAQGDKAEVPAGAEVVDLGDATLLPGFIDAHVHLSGQSSDNYYGDFFDNMMRFPAEQALYGAYYARITLEAGFTSVRDVGSTDWVALGLRNAIDAGKVPGPRMLVSNYAVGSTGGHADQDPIPPHKLPLAGPLQGVCNGPEECRAAVRYQIKYGANVIKFMPSGGVLSLSDPVDAPELSQDEMNAVIGESHAWGRKVAAHAHGDKAAKMAVAAGVDSIEHGSFIEDDTLRAMKAKNVYLVPTISAIAHVEEKIGTFPPVIAEKGRAAAAHLRQTFRHAVQIGVPIALGTDAGVGAHGSNAREFRYMVENGLTPAQALLAGTANAARLLGTFDRVGTLEAGKLADVVAVPGNPIADITVTERPLFVMKDGVVVRRDAVR | 134% | 121% | 54%
200 (protein, exemplary polypeptide) MTTRTRILTAFLSLLAANACAADAAPAAPHTVVLRAARMFDGASGKLVDHPQLTIVGNKIVRIAQGDKAEVPAGAEVVDLGDATLLPGFIDAHVHLSGQSSDNPYGDFFDNMMRFPAEQALYGAYYARITLEAGFTSVRDVGSTDWVALGLRNAIDAGKVPGPRMLVSNYAVGSTGGHADQDPIPPHKLPLAGPLQGVCNGPEECRAAVRYQIKYGANVIKFMPSGGVLSLSDPVDAPELSQDEMNAVIGESHAWGRKVAAHAHGDKAAKMAVAAGVDSIEHGSFIEDDTLRAMKAKNVYLVPTISAIAHVEEKIGTFPPVIAEKGRAAAAHLRQTFRHAVQIGVPIALGTDAGVGAHGSNAREFRYMVENGLTPAQALLAGTANAARLLGTFDRVGTLEAGKLADVVAVPGNPIADITVTERPLFVMKDGVVVRRDAVR | 18% | 25% | 88%
207 (protein, exemplary polypeptide) MTTRTRILTAFLSLLAANACAADAAPAAPKTVVLRAARMFDGASGKLVDHPQLTIVGNKIVRIAQGDKAEVPAGAEVVDLGDATLLPGFIDAHVHLSGQSSDNWYGDFFDNMMRFPAEQALYGAYYARITLEAGFTSVRDVGSTDWVALGLRNAIDAGKVPGPRMLVSNYAVGSTGGHADQDPIPPHKLPLAGPLQGVCNGPEECRAAVRYQIKYGANVIKFMPSGGVLSLSDPVDAPELSQDEMNAVIGESHAWGRKVAAHAHGDKAAKMAVAAGVDSIEHGSFIEDDTLRAMKAKNVYLVPTISAIAHVEEKIGTFPPVIAEKGRAAAAHLRQTFRHAVQIGVPIALGTDAGVGAHGSNAREFRYMVENGLTPAQALLAGTANAARLLGTFDRVGTLEAGKLADVVAVPGNPIADITVTERPLFVMKDGVVVRRDAVR | 87% | 72% | 37%
198 (protein, exemplary polypeptide) MTTRTRILTAFLSLLAANACAADAAPAAPHTVVLRAARMFDGASGKLVDHPQLTIVGNKIVRIAQGDKAEVPAGAEVVDLGDATLLPGFIDAHVHLSGQSSDNFYGDFFDNMMRFPAEQALYGAYYARITLEAGFTSVRDVGSTDWVALGLRNAIDAGKVPGPRMLVSNYAVGSTGGHADQDPIPPHKLPLAGPLQGVCNGPEECRAAVRYQIKYGANVIKFMPSGGVLSLSDPVDAPELSQDEMNAVIGESHAWGRKVAAHAHGDKAAKMAVAAGVDSIEHGSFIEDDTLRAMKAKNVYLVPTISAIAHVEEKIGTFPPVIAEKGRAAAAHLRQTFRHAVQIGVPIALGTDAGVGAHGSNAREFRYMVENGLTPAQALLAGTANAARLLGTFDRVGTLEAGKLADVVAVPGNPIADITVTERPLFVMKDGVVVRRDAVR | 111% | 84% | 55%
196 (protein, exemplary polypeptide) MTTRTRILTAFLSLLAANACAADAAPAAPHTVVLRAARMFDGASGKLVDHPQLTIVGNKIVRIAQGDKAEVPAGAEVVDLGDATLLPGFIDAHVHLSGQSSDNWYGDFFDNMMRFPAEQALYGAYYARITLEAGFTSVRDVGSTDWVALGLRNAIDAGKVPGPRMLVSNYAVGSTGGHADQDPIPPHKLPLAGPLQGVCNGPEECRAAVRYQIKYGANVIKFMPSGGVLSLSDPVDAPELSQDEMNAVIGESHAWGRKVAAHAHGDKAAKMAVAAGVDSIEHGSFIEDDTLRAMKAKNVYLVPTISAIAHVEEKIGTFPPVIAEKGRAAAAHLRQTFRHAVQIGVPIALGTDAGVVAHGSNAREFRYMVENGLTPAQALLAGTANAARLLGTFDRVGTLEAGKLADVVAVPGNPIADITVTERPLFVMKDGVVVRRDAVR | 48% | 58% | 57%
206 (protein, exemplary polypeptide) MTTRTRILTAFLSLLAANACAADAAPAAPETVVLRAARMFDGASGKLVDHPQLTIVGNKIVRIAQGDKAEVPAGAEVVDLGDATLLPGFIDAHVHLSGQSSDNWYGDFFDNMMRFPAEQALYGAYYARITLEAGFTSVRDVGSTDWVALGLRNAIDAGKVPGPRMLVSNYAVGSTGGHADQDPIPPHKLPLAGPLQGVCNGPEECRAAVRYQIKYGANVIKFMPSGGVLSLSDPVDAPELSQDEMNAVIGESHAWGRKVAAHAHGDKAAKMAVAAGVDSIEHGSFIEDDTLRAMKAKNVYLVPTISAIAHVEEKIGTFPPVIAEKGRAAAAHLRQTFRHAVQIGVPIALGTDAGVGAHGSNAREFRYMVENGLTPAQALLAGTANAARLLGTFDRVGTLEAGKLADVVAVPGNPIADITVTERPLFVMKDGVVVRRDAVR | 168% | 112% | 42%
203 (protein, exemplary polypeptide) MTTRTRILTAFLSLLAANACAADAAPAAPHTVVLRAARMFDGASGKLVDHPQLTIVGNKIVRIAQGDKAEVPAGAEVVDLGDATLLPGFIDAHVHLSGQSSDNWYGDFFDNMMRFPAEQALYGAYYARITLEAGFTSVRDVGSTDWVALGLRNAIDAGKVPGPRMLVSNYAVGSTGGHADQDPIPPHKLPLAGPLQGVCNGPEECRAAVRYQIKYGANVIKFMPSGGVLSLSDPVDAPELSQDEMNAVIGESHAWGRKVAAHAHGDKAAKMAVAAGVDSIEHGSFIEDDTLRAMKAKNVYLVPTISAIAHVEEKIGTFPPVMAEKGRAAAAHLRQTFRHAVQIGVPIALGTDAGVGAHGSNAREFRYMVENGLTPAQALLAGTANAARLLGTFDRVGTLEAGKLADVVAVPGNPIADITVTERPLFVMKDGVVVRRDAVR | 100% | 70% | 10%

Source: US20240352438A1, “MEANS AND METHODS FOR DETOXIFYING OCHRATOXIN A” (DSM Austria GmbH, priority 2021, published 2024)
